Data as given in US20150110817A1, “RADIO-PHARMACEUTICAL COMPLEXES” (published 2015).

B1: AGC1115 (AGC1100 conjugated to the water soluble chelator AGC0015) (antibody, INN chains, looked up, V domains shown)
VH: QVQLVQSGAEVKKPGSSVKVSCKASGYTFTSYWLHWVRQAPGQGLEWIGYINPRNDYTEYNQNFKDKATITADESTNTAYMELSSLRSEDTAFYFCARRDITTFYWGQGTTVTVSS
VL: DIQLTQSPSSLSASVGDRVTMSCKSSQSVLYSANHKNYLAWYQQKPGKAPKLLIYWASTRESGVPSRFSGSGSGTDFTFTISSLQPEDIATYYCHQYLSSWTFGGGTKLEIK
modifications: conjugated to chelator AGC0015
B2: AGC0700 (anti-CD33 monoclonal antibody, generated from the HuM195 template) (antibody, V domains shown)
VH: QVQLVQSGAEVKKPGSSVKVSCKASGYTFTDYNMHWVRQAPGQGLEWIGYIYPYNGGTGYNQKFKSKATITADESTNTAYMELSSLRSEDTAVYYCARGRPAMDYWGQGTLVTVSS
VL: DIQMTQSPSSLSASVGDRVTITCRASESVDNYGISFMNWFQQKPGKAPKLLIYAASNQGSGVPSRFSGSGSGTDFTLTISSLQPDDFATYYCQQSKEVPWTFGQGTKVEIKR

Experiments:
[1] = biological target: CD22 on CD22-positive Raji or Ramos cells (human) (UniProt P20273); assay: flow cytometry on CD22-positive Raji cells
[2] = biological target: CD33 on CD33-positive HL-60 cells (human, UniProt P20138); assay: flow cytometry on HL-60 cells, 50:50 mixture; competitor: mouse anti-human CD33 reference mAb
Experimental: Binding to CD33-positive HL-60 cells were studied by flow cytometry. The determination of EC₅₀ based on the plotted curve gives an approximate value for the affinity.
The mAb or conjugate to be analyzed was prepared fresh form frozen stock by shifting the storage buffer to PBS, kept at 4° C., and used within a few days after preparation. […] The secondary antibody reagent was prepared at 0.015 mg/mL in PBS, supplemented with 0.1% BSA. The mAb stock was diluted in 10-fold dilution steps, starting from 5 mg/mL. An isotype control mAb (trastuzumab) was prepared accordingly. 20 uL from each dilution step of the anti-human CD33 mAb was added to wells containing HL-60 cells. After incubation for 1 h at 4° C. the cells were spun down and washed three times with 200 μl cold PBS, supplemented with 0.1% BSA. A solution containing 4% goat serum was added as a blocking agent, and incubated for 15 minutes. 20 μl from the secondary antibody reagent was subsequently added to each well, before incubation for 30 min at 4° C. in the dark.
The cells were washed twice, as described above, and re-suspended in 200 μL PBS, supplemented with 0.1% BSA. All samples were analysed in 96-well round or conical bottom plates. Fluorescent signals were recorded on a Beckham Coulter Cell lab Quant SC flow cytometer (Beckman Coulter; CA, USA). […]

Molecule | EC50 [1] | fold less antibody bound [2]
AGC1100 (anti-CD22 monoclonal antibody hLL2, also called epratuzumab) | 9 nM | 
B1 | 6 nM | 
B2 |  | ~0.7 fold
